Experimental data reported in patent publication US20040001839A1, “Multimers - isolated molecules comprising epitopes containing sulfated moieties, antibodies to such epitopes, and uses thereof” (priority 2000, published 2004).

B1: CONY1: scFv derived from Y1 scFv, myc tag replaced by lysine, alanine, lysine (KAK); SEQ ID NO:204 (protein, listed as Homo sapiens)
scFv: MKYLLPTAAAGLLLLAAQPAMAEVQLVESGGGVVRPGGSLRLSCAASGFTFDDYGMSWVRQAPGKGLEWVSGINWNGGSTGYADSVKGRFTISRDNAKNSLYLQMNSLRAEDTAVYYCARMRAPVIWGQGTLVTVSRGGGGSGGGGSGGGGSSELTQDPAVSVALGQTVRITCQGDSLRSYYASWYQQKPGQAPVLVIYGKNNRPSGIPDRFSGSSSGNTASLTITGAQAEDEADYYCNSRDSSGNHVVFGGGTKLTVLGAAAKAK
B2: S-S Y1 dimer: disulfide bridge dimer of Y1 scFv compared with CONY1 and Y1-IgG in Example 12 (protein)
scFv 1: MEVQLVESGGGVVRPGGSLRLSCAASGFTFDDYGMSWVRQAPGKGLEWVSGINWNGGSTGYADSVKGRFTISRDNAKNSLYLQMNSLRAEDTAVYYCARMRAPVIWGQGTLVTVSRGGGGSGGGGSGGGGSSELTQDPAVSVALGQTVRITCQGDSLRSYYASWYQQKPGQAPVLVIYGKNNRPSGIPDRFSGSSSGNTASLTITGAQAEDEADYYCNSRDSSGNHVVFGGGTKLTVLGGGGCKAK
scFv 2: MEVQLVESGGGVVRPGGSLRLSCAASGFTFDDYGMSWVRQAPGKGLEWVSGINWNGGSTGYADSVKGRFTISRDNAKNSLYLQMNSLRAEDTAVYYCARMRAPVIWGQGTLVTVSRGGGGSGGGGSGGGGSSELTQDPAVSVALGQTVRITCQGDSLRSYYASWYQQKPGQAPVLVIYGKNNRPSGIPDRFSGSSSGNTASLTITGAQAEDEADYYCNSRDSSGNHVVFGGGTKLTVLGGGGCKAK

Key:
MOLT-4 cells = experiment: T-ALL (MOLT4) model in SCID mice; format: in vivo
Description: The in vivo mouse model for T-ALL uses SCID mice (Jackson Laboratories) injected with MOLT4 cells derived from a T cell leukemia patient.
In one experiment, SCID mice were pretreated with 100 mg/kg Cytoxan (CTX, Cyclophosphamid for injection, Mead Johnson). Eleven days after CTX injection, MOLT-4 cells were injected intravenously into the tail vein. Control mice were injected with PBS alone. One week post-MOLT-4 injection mice were injected with CONY1-Doxorubicin, which is a conjugate between scFv CON Y1 polypeptide, having KAK amino acid residues at its carboxy end and doxorubicin via a short organic linker; CONY1, which is a scFv antibody fragment derived from Y1 scFv in which the DNA sequences encoding the myc tag of Y1 were deleted and replaced with a DNA sequence encoding the amino acids lysine, alanine, lysine (KAK); or free Doxorubicin. The mice were injected three times per week for three weeks. […] (Table M).
Mice started to die 32 days post cell inoculation, and the surviving mice were sacrificed at this time. Bone marrow cells were analyzed by flow cytometry using anti-human CD44-FITC and Y1-Biotin/SAV-PE. Blood samples from several animals were monitored for platelet and white blood cell count. Livers were weighted and examined for tumor appearance. Other organs were also examined for tumor appearance.
In a second experiment, SCID mice were i.v. injected with 2×10^7 MOLT-4 cells/mouse, 5 days post treatment with cyclophosphamide. Anti-cancer agents or PBS (negative control animals) were injected i.v. three times/week from day 5 post MOLT-4 cells injection and onward. On day 35, blood was drawn from the animals, the animals were sacrificed, and their livers were excised and weighed. In the untreated, PBS-treated MOLT-4 cell-bearing animals, the liver presented with a very massive tumor growth, and its size was increased 2-3-fold relative to PBS control uninfected animals. In this experiment, there were five treatment groups:
In parallel, portions of liver tissue were taken for histology and cell harvesting for FACS analysis. The survival rate of another group of treated animals was recorded relative to that of control untreated mice.
In a third experiment, using the identical SCID/MOLT-4 protocol, there were 6 groups: […]

KG-1 cells [1] = experiment: AML KG-1 model in NOD/SCID mice; format: in vivo
Description: The in vivo mouse model for human AML uses SCID/NOD mice (Jackson Laboratories) inoculated with KG-1 cells derived from a human AML cell line.
In a first experiment, NOD/SCID mice were pretreated with 100 mg/kg CYTOXAN®. Four days post CYTOXAN® injection, KG-1 cells were injected intravenously into the tail vein of six groups of mice. (Table N, Groups 2 and 5-9). One group of mice (Table N, Group 1) was injected with PBS alone (control). [273.][273.]
Beginning 19 days post KG-1 injection mice were treated with: CONY1, Doxorubicin, CONY1-Doxorubicin conjugate, or Mylotarg®. (Mylotarg® is a monoclonal antibody (anti CD33) conjugated chemically to calcheamicin recently approved by the FDA for treatment of AML patients age 60 and over in a first relapse.) Mice were treated once or three times per week for three weeks. […]
Mice were sacrificed from 60 to 65 days post cell injection. Bone marrow and blood samples were analyzed by flow cytometry using mouse anti human CD34-FITC (IQP 144F) (or anti CD44-FITC (MCA89F, Serotec)) and Y1-Biotin/SAV-PE. […]
An additional experiment was performed in which SCID-NOD mice were i.v. injected with 3×10^4 MOLT-4 cells/mouse 5 days post treatment with cyclophosphamide. […] Bone marrow was extracted and analyzed by FACS analysis using a commercially available antiCD44 antibody for the detection of MOLT-4 cells in the mice bone marrow cell population.

[2] = Pharmacokinetics of 125I-CONY1 after intravenous injection in mice; format: in vivo, Balb-C mice; settings: 15 μg per mouse i.v.; plasma TCA-precipitable radioactivity, two-compartment model
Description: Two to four mice were used per time point. […] Organ/tissue total and specific radioactivity values were calculated.

[3] = target: T1, GPIb (glycocalicin) derived from platelets (Homo sapiens, UniProt P07359); experiment: ELISA of monomer and dimer to GPIb (glycocalicin); format: binding
T1 construct: glycocalicin (soluble, extracellular fragment of GPIbα); from tissue; host or cells: human platelets
Description: An ELISA assay was performed to ascertain the differences in binding between the monomer (the Y1 scFv-also known as Y1-kak) and the dimer Y1-cys-kak (the cysteine dimer) for antigen GPIb (glycocalicin) derived from platelets. A polyclonal anti single chain antibody and/or a novel polyclonal anti-VL (derived from rabbits) and anti-rabbit HRP, were used to detect the binding to GPIb. […] For instance, to reach 0.8 OD units 12.8 μg/ml of monomer was used compared to only 0.1 μg/ml of dimer.
100 ml of purified glycocalicin was incubated in a 96 flat well maxisorp plates, overnight at 4 degrees celsius. The plate was washed with PBST (PBS+0.05% tween) 3 times, then […] of PBST-milk (PBST+2% Non fat milk), for 1 hr at room temperature. The plate was washed with PBST, and the monomer or dimer (100 ml) was added in PBST-milk at different concentrations for 1 hr at room temp. Then the plate was washed and anti-VL polyclonal (derived from immunized rabbits with VL derived from Y1) (1:100 diluted in PBST-milk) was added for an hour. The plate was washed and anti-rabbit HRP was added for an additional hour. The plate was washed 5 times and 100 μl TMB substrate was added for approximately 15 minutes then 100 μl of 0.5 H2SO4 was added to stop the reaction. The optical density of the plate was measured at 450 nm in an ELISA reader.

KG-1 cells [4] = experiment: Radioreceptor binding assay with KG-1 cells; parameters: species or system human; settings: 2 ng/tube 125I-Y1-IgG tracer
Description: The assay system involved the use of radioactive ligands that were prepared by iodination with ^125I using chloramine T on the Y1-IgG construct or the Bolton-Hunter (CONY1) reagent. The assay tubes contained 5×10^6 KG-1 cells per 0.2 ml and a labeled tracer with varying amounts of unlabeled competitor, in PBS+0.1% BSA, pH 7.4. After one hour incubation with agitation at 4° C., the cells were thoroughly washed with cold buffer and taken for radioactivity counting.
For the radio receptor binding assay (RRA), 2 ng/tube of ^125I-Y1-IgG was used, and competition was performed with each of the three molecules. […] A rough estimate of the affinity of the Y1-IgG in this experiment is 2×10^−8 M. The corresponding affinity of the dimer is, therefore, 4×10^−8 M.
In a second RRA using labeled CONY1, a 100 ng/tube of ^125I-Y1-IgG was used, and competition was performed with each of the three molecules. […] A rough estimate of the affinity of CONY 1 in this experiment is 10^−6M. The corresponding affinity of the dimer is, therefore, 5×10^−8 M.

Row | Molecule | liver weight versus mice treated with free Doxorubicin or left untreated (MOLT-4 cells; first experiment, 3 times per week for three weeks, sacrificed 32 days post cell inoculation) | tumor growth in the liver (liver weights, day 35) (MOLT-4 cells; second experiment, 75 μg/mouse i.v. three times/week from day 5) | tumor growth (based on liver weights) (MOLT-4 cells; third experiment, 75 μg/mouse) | survival (MOLT-4 cells; three groups with continued treatment) | percentage of KG-1 cells in bone marrow (KG-1 cells [1]; KG-1 cells incubated in vitro with scFv (0.25 mg/10^8 cells) before injection (groups 3 and 4)) | development of the malignancy (cancer cells in bone marrow, day 60) (KG-1 cells [1]; additional experiment, 75 μg/mouse i.v. three times/week from day 14) | half-life of blood clearance, second compartment [2] [h] | concentration used to reach 0.8 OD units [3] [µg/mL] | affinity relative to the full Y1 antibody (KG-1 cells [4])
1 | B1 | weighted significantly less | markedly inhibited tumor growth in the liver | inhibited tumor growth | prolonged | significantly lower percentage of KG-1 cells | no effect | 3.17 | 12.8 | –
2 | B2 | – | – | – | – | – | – | – | – | twofold lower
